Here are results for three molecules from patent publication US20220340660A1 (Merck Sharp & Dohme, published 2022).

For test [1], the target named is T1, mouse TIGIT on mouse TIGIT-overexpressing CHO cells (mouse, UniProt P86176 29-249).
T1 construct: whole, on cells; also called mTIGIT/CHO; mTIGIT
T1 sequence (looked up): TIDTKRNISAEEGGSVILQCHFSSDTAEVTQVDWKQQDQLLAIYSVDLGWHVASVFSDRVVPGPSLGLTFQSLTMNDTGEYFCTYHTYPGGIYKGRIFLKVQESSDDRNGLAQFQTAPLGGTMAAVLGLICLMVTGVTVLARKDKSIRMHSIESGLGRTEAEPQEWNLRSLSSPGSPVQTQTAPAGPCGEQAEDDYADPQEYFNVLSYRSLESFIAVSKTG
Kind of test: cell-based ELISA on mTIGIT/CHO cells, detected by anti-mouse IgG. As to the method:
(§1) FIG. 1A and FIG. 1B are graphs showing identification and characterization of anti-mouse TIGIT monoclonal antibody 18G10. FIG. 1A is a line graph showing binding of anti-mouse TIGIT, clone 18G10, was measured by a cell-based ELISA using mouse TIGIT-overexpressing CHO cells (mTIGIT/CHO). 18G10 was serially diluted as indicated. After 30 min. of incubation, unbound 18G10 antibody was washed out, and the bound 18G10 antibodies were detected using an anti-mouse IgG reagent (closed circles). When the 18G10 was bound in the indicated serial dilutions on mTIGIT/CHO, 8 μg/ml recombinant mouse CD155:hIgG1-Fc (rmCD155) was added to the plate in order to verify whether 18G10 blocked the interaction of rmCD155 with mTIGIT/CHO. After 40 minutes of incubation, unbound recombinant CD155 was washed out, and the bound recombinant CD155 was detected by anti-human IgG reagent (open circles). […] Chimeric anti-TIGIT (18G10):mIgG2a, anti-TIGHT (18G10):mIgG1-[D265A], and isotype controls with mIgG2a or mIgG1-[D265A] isotype were loaded to ELISA plates coated with 1 μg/ml of (left panel) recombinant mouse TIGIT protein or (right panel) goat anti-mouse IgG-Fc antibody. Bound antibodies to each plate were detected. Note: mIgG1* indicates mIgG1-[D265A].
On the technique in general: ELISA stands for enzyme-linked immunosorbent assay.

The target in test [2] is T2, recombinant mouse TIGIT protein (mouse, UniProt P86176 29-148, limits assumed).
T2 construct: also called mTIGIT recombinant protein; mTIGIT
T2 sequence (looked up): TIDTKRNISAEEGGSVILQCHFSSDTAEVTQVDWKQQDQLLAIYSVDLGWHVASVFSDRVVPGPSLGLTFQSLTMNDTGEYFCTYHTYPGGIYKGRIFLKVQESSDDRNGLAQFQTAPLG
Kind of test: ELISA, plate coated with 1 µg/ml recombinant mouse TIGIT protein (FIG. 1B). As to the method: as §1

B1: anti-mouse TIGIT monoclonal antibody 18G10 (antibody, V domains shown)
VH: QVQLMESGPGLVQPSQTLSLTCTVSGFPLTSYTVHWVRQPPGKGLEWIGAIWSSGSTDYNSALKSRLNINRDSSKSQVFLKMNSLQTEDTAIYFCTKSGWAFFDYWGQGVMVTVSS
VL: DIQMTQSPSLLSASVGDRVTLNCIASQNIYKSLAWYQLKLGEAPKLLIYNANSLQAGIPSRFSGSGSGTDFALTISGLQPEDVATYFCQQYSGGYTFGAGTKLELK
notes: also called anti-mouse TIGIT, clone 18G10; rat anti-mouse TIGIT (mTIGIT) antibody clone 18G10
With B1, in test [1], the binding result is listed as “binds”.

B2: chimeric anti-TIGIT (18G10):mIgG2a (antibody)
heavy: QVQLMESGPGLVQPSQTLSLTCTVSGFPLTSYTVHWVRQPPGKGLEWIGAIWSSGSTDYNSALKSRLNINRDSSKSQVFLKMNSLQTEDTAIYFCTKSGWAFFDYWGQGVMVTVSSAKTTAPSVYPLAPVCGDTTGSSVTLGCLVKGYFPEPVTLTWNSGSLSSGVHTFPAVLQSDLYTLSSSVTVTSSTWPSQSITCNVAHPASSTKVDKKIEPRGPTIKPCPPCKCPAPNLLGGPSVFIFPPKIKDVLMISLSPIVTCVVVDVSEDDPDVQISWFVNNVEVHTAQTQTHREDYNSTLRVVSALPIQHQDWMSGKEFKCKVNNKDLPAPIERTISKPKGSVRAPQVYVLPPPEEEMTKKQVTLTCMVTDFMPEDIYVEWTNNGKTELNYKNTEPVLDSDGSYFMYSKLRVEKKNWVERNSYSCSVVHEGLHNHHTTKSFSRTPGK
light: DIQMTQSPSLLSASVGDRVTLNCIASQNIYKSLAWYQLKLGEAPKLLIYNANSLQAGIPSRFSGSGSGTDFALTISGLQPEDVATYFCQQYSGGYTFGAGTKLELKRADAAPTVSIFPPSSEQLTSGGASVVCFLNNFYPKDINVKWKIDGSERQNGVLNSWTDQDSKDSTYSMSSTLTLTKDEYERHNSYTCEATHKTSTSPIVKSFNRNEC
notes: Rat 18G10 variable domains on an intact mouse IgG2a backbone; also called anti-TIGIT:mIgG2a
For B2, the binding result in test [2] was “binds”.

B3: chimeric anti-TIGIT (18G10):mIgG1-[D265A] (antibody)
heavy: QVQLMESGPGLVQPSQTLSLTCTVSGFPLTSYTVHWVRQPPGKGLEWIGAIWSSGSTDYNSALKSRLNINRDSSKSQVFLKMNSLQTEDTAIYFCTKSGWAFFDYWGQGVMVTVSSAKTTPPSVYPLAPGSAAQTNSMVTLGCLVKGYFPEPVTVTWNSGSLSSGVHTFPAVLQSDLYTLSSSVTVPSSTWPSETVTCNVAHPASSTKVDKKIVPRDCGCKPCICTVPEVSSVFIFPPKPKDVLTITLTPKVTCVVVAISKDDPEVQFSWFVDDVEVHTAQTQPREEQFNSTFRSVSELPIMHQDWLNGKEFKCRVNSAAFPAPIEKTISKTKGRPKAPQVYTIPPPKEQMAKDKVSLTCMITDFFPEDITVEWQWNGQPAENYKNTQPIMDTDGSYFVYSKLNVQKSNWEAGNTFTCSVLHEGLHNHHTEKSLSHSPGK
light: DIQMTQSPSLLSASVGDRVTLNCIASQNIYKSLAWYQLKLGEAPKLLIYNANSLQAGIPSRFSGSGSGTDFALTISGLQPEDVATYFCQQYSGGYTFGAGTKLELKRADAAPTVSIFPPSSEQLTSGGASVVCFLNNFYPKDINVKWKIDGSERQNGVLNSWTDQDSKDSTYSMSSTLTLTKDEYERHNSYTCEATHKTSTSPIVKSFNRNEC
notes: Rat 18G10 variable domains on a mouse IgG1 backbone with D265A; also called anti-TIGIT:mIgG1*
B3: in test [2], the binding result is “binds”.
